Data taken from publication PMC6684614, “Histone chaperone exploits intrinsic disorder to switch acetylation specificity” (Nature Communications, 2019).

Target: the molecule itself
Experiment: solution structural model from NMR PRE distance restraints and SANS (M3 data-driven docking with HADDOCK); 145 PRE-derived distance restraints and six SANS curves; building blocks PDB 2hue and MD conformers of PDB 3q66; 33 structures, pairwise backbone RMSD 2.0 A; 50 mM citrate pH 6.5, 150 mM NaCl, 298 K

B1: Vps75 (vacuolar protein sorting-associated protein 75) homodimer (natural protein, S. cerevisiae, UniProt P53853 1-264, looked up)
chain: MMSDQENENEHAKAFLGLAKCEEEVDAIEREVELYRLNKMKPVYEKRDAYIDEIAEFWKIVLSQHVSFANYIRASDFKYIDTIDKIKVEWLALESEMYDTRDFSITFHFHGIEGDFKEQQVTKVFQIKKGKDDQEDGILTSEPVPIEWPQSYDSINPDLIKDKRSPEGKKKYRQGMKTIFGWFRWTGLKPGKEFPHGDSLASLFSEEIYPFCVKYYAEAQRDLEDEEGESGLSADGDSEDDDGSLGEVDLPLSDEEPSSKKRKV
notes: Vps75, S. cerevisiae, full length; the C-terminal acidic domain (CTAD) is 226-264; isotope-labelled (ILV methyl, 15N, 2H) in some samples; also called Vps75_(2); ScVps75; source: E. coli BL21(DE3), purified (IMAC, TEV cleavage, ion exchange, SEC); not shown: His6, N-terminal, cleaved
- stoichiometry N: 2 subunits
